1 substance from US20220218639A1 can be followed below.

The test addresses fibrin (Homo sapiens (Human)) (UniProt P02671).

δ-plasmin (enzyme) gave a percent clot digestion (clot weight before and after 2 hours of incubation, in serum, background-corrected) of 7.17%.
